{"source": "paper PMC8186250", "binders": {"B1": {"name": "2xFR (dsDNA)", "DNA 1": "ATTAGGATAGCCTATGCTACCCAGATATAGATTAGGATAGCATATGCTACCCAGATATAGAGAGCGTCACCTAAGCC", "DNA 2": "GGCTTAGGTGACGCTCTATATCTGGGTAGCATATGCTATCCTAATCTATATCTGGGTAGCATAGGCTATCCTAAT"}}, "molecular_target": "EBNA1 DBD WT (Epstein-Barr virus (B95-8), UniProt P03211 459-607)", "sequence (P03211 459-607)": "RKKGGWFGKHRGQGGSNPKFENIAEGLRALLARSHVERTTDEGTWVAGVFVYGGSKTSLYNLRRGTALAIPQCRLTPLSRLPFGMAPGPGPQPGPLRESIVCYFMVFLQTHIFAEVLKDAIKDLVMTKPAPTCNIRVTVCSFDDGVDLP", "test": "SDS-EMSA", "data": [{"binder": "B1", "values": [{"measurement": "binding result", "value": "binds"}]}]}
